Reference: paper PMC8347774, “Construction of Fluorescent Immunosensor Quenchbody to Detect His-Tagged Recombinant Proteins Produced in Bioprocess” (Sensors (Basel, Switzerland), 2021)
Read-outs that look alike come from different tables or passages of the source. The star is where a group is joined. Biotin = O=C1N[C@H]2[C@H](CS[C@H]2CCCCC(=O)*)N1

Legend:
[1] = target: T1, biotinylated His6 peptide (bio-EGGGSHHHHHH-COOH) (synthetic peptide, SMILES …); experiment: BLI; biotinylated His6 peptide (100 nM) loaded on streptavidin biosensors; unlabeled protein or Q-body in two-fold dilutions in Kinetic buffer (phosphate, 150 mM NaCl, 0.002% Tween20, 0.1% BSA, pH 7.4); global fit, 1:1 model; Octet K2
T1 construct: spacer EGGGS and His6; Held on streptavidin biosensors by its biotin; source: synthetic peptide (PSSM-8 peptide synthesizer)
T1 chain: Biotin-EGGGSHHHHHH-OH

[2] = target: T2, His6 peptide (antigen of the fluorescence assays) (synthetic peptide); experiment: other fluorescence titration; Q-body de-quenching in solution with His6 peptide at varied concentrations, PBST, plate reader; EC50 from a four-parameter logistic fit; conditions: both partners purified
T2 construct: His6; The materials name only the biotinylated His6 peptide as synthesised; it may be the same peptide as m17
T2 chain: HHHHHH

[3] = target: anti-SARS-CoV-2 VHH nanobody tagged with a hinge, 3xFLAG and C-terminal His tags; experiment: other fluorescence titration

B1: anti-His scFv 3D5 WW variant (scFv, V domains shown)
VH: QVQLQQSGPEDVKPGASVKISCKASGYTFTDWWMNWVKQSPGKGLEWIGDINPNNGGTSYNQKFKGRATLTVDKSSSTAYMELRSLTSEDSSVYYCESQSGAYWGQGTTVTVSA
VL: DILMTQTPSSLPVSLGDQASISCRSSQSIVHSNGNTYLEWYLQKPGQSPKLLIYKVSNRFSGVPDRFSGSGSGTDFTLKISRVEAEDLGVYYCFQGSHVPFTFGSGTKLEIK
- Kd [1]: 2.88 nM
- koff [1]: 0.000835 s⁻¹
- kon [1]: 290000 M⁻¹ s⁻¹

B2: anti-His Fab 3D5 YW variant (Fab, V domains shown)
VH: QVQLQQSGPEDVKPGASVKISCKASGYTFTDYWMNWVKQSPGKGLEWIGDINPNNGGTSYNQKFKGRATLTVDKSSSTAYMELRSLTSEDSSVYYCESQSGAYWGQGTTVTVSA
VL: DILMTQTPSSLPVSLGDQASISCRSSQSIVHSNGNTYLEWYLQKPGQSPKLLIYKVSNRFSGVPDRFSGSGSGTDFTLKISRVEAEDLGVYYCFQGSHVPFTFGSGTKLEIK
notes: VH of antibody 3D5, as the VH of m7 with the stated change; numbers count on: Kabat numbering of the heavy chain; CH1 of the vector pUQ2, as in m7; VL of antibody 3D5, as the light chain of m7; CL of the vector pUQ2, as the light chain of m7; YW read as Tyr kept at 32H and Trp at 33H; source: E. coli SHuffle T7 Express with pGro7, purified (Talon IMAC); not shown: Cys-tag, N-terminal, kept; His6, …
- Kd ([1]; both partners purified): 0.76 nM
- koff ([1]; both partners purified): 0.000105 s⁻¹
- kon ([1]; both partners purified): 139000 M⁻¹ s⁻¹

B3: anti-His scFv 3D5 (wild-type) (scFv, V domains shown)
VH: QVQLQQSGPEDVKPGASVKISCKASGYTFTDYYMNWVKQSPGKGLEWIGDINPNNGGTSYNQKFKGRATLTVDKSSSTAYMELRSLTSEDSSVYYCESQSGAYWGQGTTVTVSA
VL: DILMTQTPSSLPVSLGDQASISCRSSQSIVHSNGNTYLEWYLQKPGQSPKLLIYKVSNRFSGVPDRFSGSGSGTDFTLKISRVEAEDLGVYYCFQGSHVPFTFGSGTKLEIK
notes: VH of antibody 3D5 (anti-C-terminal His tag); numbers count on: Kabat numbering of the heavy chain; linker between VH and VL of the VH-VL type scFv (synthesised gene in pEX-K4J2-1KTR); VL of antibody 3D5; VH-VL order, vector pSQ (3D5); also called wild-type scFv; source: E. coli SHuffle T7 Express with pGro7, purified (Talon IMAC); not shown: Cys-tag, N-terminal, kept; His6, C-terminal, kept; …
- Kd ([1]; both partners purified): 5.03 nM
- koff ([1]; both partners purified): 0.000425 s⁻¹
- kon ([1]; both partners purified): 84500 M⁻¹ s⁻¹

B4: ATTO520-C2 maleimide double-labeled wild-type Fab 3D5 Q-body (Fab, V domains shown)
VH: QVQLQQSGPEDVKPGASVKISCKASGYTFTDYYMNWVKQSPGKGLEWIGDINPNNGGTSYNQKFKGRATLTVDKSSSTAYMELRSLTSEDSSVYYCESQSGAYWGQGTTVTVSA
VL: DILMTQTPSSLPVSLGDQASISCRSSQSIVHSNGNTYLEWYLQKPGQSPKLLIYKVSNRFSGVPDRFSGSGSGTDFTLKISRVEAEDLGVYYCFQGSHVPFTFGSGTKLEIK
notes: VH of antibody 3D5, as in m7; CH1 of the vector pUQ2, as in m7; VL of antibody 3D5, as the light chain of m7; CL of the vector pUQ2, as the light chain of m7; m7 labelled with two ATTO520 dyes; also called Wild-type ATTO520; source: E. coli SHuffle T7 Express with pGro7, purified (Talon IMAC), labelled, purified (anti-FLAG M2 beads, G-25); not shown: Cys-tag, N-terminal, kept; His6, C-terminal, …
- EC50 [2]: 13800 ± 5100 nM

B5: ATTO520-C2 maleimide double-labeled YW Fab 3D5 Q-body (Fab, V domains shown)
VH: QVQLQQSGPEDVKPGASVKISCKASGYTFTDYWMNWVKQSPGKGLEWIGDINPNNGGTSYNQKFKGRATLTVDKSSSTAYMELRSLTSEDSSVYYCESQSGAYWGQGTTVTVSA
VL: DILMTQTPSSLPVSLGDQASISCRSSQSIVHSNGNTYLEWYLQKPGQSPKLLIYKVSNRFSGVPDRFSGSGSGTDFTLKISRVEAEDLGVYYCFQGSHVPFTFGSGTKLEIK
notes: VH of antibody 3D5, as the VH of m7 with the stated change; numbers count on: Kabat numbering of the heavy chain; CH1 of the vector pUQ2, as in m7; VL of antibody 3D5, as the light chain of m7; CL of the vector pUQ2, as the light chain of m7; m9 labelled with two ATTO520 dyes; also called YW ATTO520; YW-ATTO520; source: E. coli SHuffle T7 Express with pGro7, purified (Talon IMAC), labelled, …
- EC50 [2]: 6100 ± 1400 nM
- EC50 [3]: 3000 nM

B6: 5-TAMRA C6 maleimide double-labeled wild-type Fab 3D5 Q-body (Fab, V domains shown)
VH: QVQLQQSGPEDVKPGASVKISCKASGYTFTDYYMNWVKQSPGKGLEWIGDINPNNGGTSYNQKFKGRATLTVDKSSSTAYMELRSLTSEDSSVYYCESQSGAYWGQGTTVTVSA
VL: DILMTQTPSSLPVSLGDQASISCRSSQSIVHSNGNTYLEWYLQKPGQSPKLLIYKVSNRFSGVPDRFSGSGSGTDFTLKISRVEAEDLGVYYCFQGSHVPFTFGSGTKLEIK
notes: VH of antibody 3D5, as in m7; CH1 of the vector pUQ2, as in m7; VL of antibody 3D5, as the light chain of m7; CL of the vector pUQ2, as the light chain of m7; m7 labelled with two dyes; also called Wild-type TAMRA; source: E. coli SHuffle T7 Express with pGro7, purified (Talon IMAC), labelled, purified (anti-FLAG M2 beads, G-25); not shown: Cys-tag, N-terminal, kept; His6, C-terminal, kept; myc, …
- Kd ([1]; both partners purified): 3.19 nM
- koff ([1]; both partners purified): 0.000672 s⁻¹
- kon ([1]; both partners purified): 210000 M⁻¹ s⁻¹
- EC50 [2]: 132000 ± 34000 nM

B7: 5-TAMRA C6 maleimide-labeled wild-type scFv 3D5 Q-body (scFv, V domains shown)
VH: QVQLQQSGPEDVKPGASVKISCKASGYTFTDYYMNWVKQSPGKGLEWIGDINPNNGGTSYNQKFKGRATLTVDKSSSTAYMELRSLTSEDSSVYYCESQSGAYWGQGTTVTVSA
VL: DILMTQTPSSLPVSLGDQASISCRSSQSIVHSNGNTYLEWYLQKPGQSPKLLIYKVSNRFSGVPDRFSGSGSGTDFTLKISRVEAEDLGVYYCFQGSHVPFTFGSGTKLEIK
notes: VH of antibody 3D5, as in m1; linker between VH and VL, as in m1; VL of antibody 3D5, as in m1; m1 labelled with one dye; also called wild-type scFv Q-body; source: E. coli SHuffle T7 Express with pGro7, purified (Talon IMAC), labelled, purified (anti-FLAG M2 beads, G-25); not shown: Cys-tag, N-terminal, kept; His6, C-terminal, kept; FLAG, C-terminal, kept
- Kd ([1]; both partners purified): 26.8 nM
- koff ([1]; both partners purified): 0.00303 s⁻¹
- kon ([1]; both partners purified): 113000 M⁻¹ s⁻¹

B8: ATTO520-C2 maleimide double-labeled WW Fab 3D5 Q-body (Fab, V domains shown)
VH: QVQLQQSGPEDVKPGASVKISCKASGYTFTDWWMNWVKQSPGKGLEWIGDINPNNGGTSYNQKFKGRATLTVDKSSSTAYMELRSLTSEDSSVYYCESQSGAYWGQGTTVTVSA
VL: DILMTQTPSSLPVSLGDQASISCRSSQSIVHSNGNTYLEWYLQKPGQSPKLLIYKVSNRFSGVPDRFSGSGSGTDFTLKISRVEAEDLGVYYCFQGSHVPFTFGSGTKLEIK
notes: VH of antibody 3D5, as the VH of m7 with the stated changes; numbers count on: Kabat numbering of the heavy chain; CH1 of the vector pUQ2, as in m7; VL of antibody 3D5, as the light chain of m7; CL of the vector pUQ2, as the light chain of m7; m8 labelled with two ATTO520 dyes; also called WW ATTO520; WW-ATTO520; source: E. coli SHuffle T7 Express with pGro7, purified (Talon IMAC), labelled, …
- EC50 [2]: 8800 ± 1300 nM
- EC50 [3]: 10700 nM

B9: 5-TAMRA C6 maleimide double-labeled WW Fab 3D5 Q-body (Fab, V domains shown)
VH: QVQLQQSGPEDVKPGASVKISCKASGYTFTDWWMNWVKQSPGKGLEWIGDINPNNGGTSYNQKFKGRATLTVDKSSSTAYMELRSLTSEDSSVYYCESQSGAYWGQGTTVTVSA
VL: DILMTQTPSSLPVSLGDQASISCRSSQSIVHSNGNTYLEWYLQKPGQSPKLLIYKVSNRFSGVPDRFSGSGSGTDFTLKISRVEAEDLGVYYCFQGSHVPFTFGSGTKLEIK
notes: VH of antibody 3D5, as the VH of m7 with the stated changes; numbers count on: Kabat numbering of the heavy chain; CH1 of the vector pUQ2, as in m7; VL of antibody 3D5, as the light chain of m7; CL of the vector pUQ2, as the light chain of m7; m8 labelled with two dyes; also called WW TAMRA; source: E. coli SHuffle T7 Express with pGro7, purified (Talon IMAC), labelled, purified (anti-FLAG M2 …)
- Kd [1]: 1.72 nM
- koff [1]: 0.000455 s⁻¹
- kon [1]: 264000 M⁻¹ s⁻¹
- Kd ([1]; record 2): 3.19 nM
- EC50 [2]: 89500 ± 25400 nM
- EC50 [3]: 11500 nM

B10: anti-His Fab 3D5 WW variant (Fab, V domains shown)
VH: QVQLQQSGPEDVKPGASVKISCKASGYTFTDWWMNWVKQSPGKGLEWIGDINPNNGGTSYNQKFKGRATLTVDKSSSTAYMELRSLTSEDSSVYYCESQSGAYWGQGTTVTVSA
VL: DILMTQTPSSLPVSLGDQASISCRSSQSIVHSNGNTYLEWYLQKPGQSPKLLIYKVSNRFSGVPDRFSGSGSGTDFTLKISRVEAEDLGVYYCFQGSHVPFTFGSGTKLEIK
- Kd [1]: 0.17 nM
- koff [1]: 2.27e-05 s⁻¹
- kon [1]: 132000 M⁻¹ s⁻¹

B11: anti-His Fab 3D5 (wild-type) (Fab, V domains shown)
VH: QVQLQQSGPEDVKPGASVKISCKASGYTFTDYYMNWVKQSPGKGLEWIGDINPNNGGTSYNQKFKGRATLTVDKSSSTAYMELRSLTSEDSSVYYCESQSGAYWGQGTTVTVSA
VL: DILMTQTPSSLPVSLGDQASISCRSSQSIVHSNGNTYLEWYLQKPGQSPKLLIYKVSNRFSGVPDRFSGSGSGTDFTLKISRVEAEDLGVYYCFQGSHVPFTFGSGTKLEIK
notes: VH of antibody 3D5; numbers count on: Kabat numbering of the heavy chain; CH1 of the vector pUQ2 (Fd = VH-CH1); VL of antibody 3D5; CL of the vector pUQ2 (Lc = VL-CL); Linker-less pUQ2 (3D5): the (GGGS)4 linker between Cys-tag and VH was removed; His6 is followed by myc on the heavy chain; also called wild-type Fab; source: E. coli SHuffle T7 Express with pGro7, purified (Talon IMAC); not shown: …
- Kd ([1]; both partners purified): 3.62 nM
- koff ([1]; both partners purified): 9.93e-05 s⁻¹
- kon ([1]; both partners purified): 27400 M⁻¹ s⁻¹

B12: 5-TAMRA C6 maleimide double-labeled YW Fab 3D5 Q-body (Fab, V domains shown)
VH: QVQLQQSGPEDVKPGASVKISCKASGYTFTDYWMNWVKQSPGKGLEWIGDINPNNGGTSYNQKFKGRATLTVDKSSSTAYMELRSLTSEDSSVYYCESQSGAYWGQGTTVTVSA
VL: DILMTQTPSSLPVSLGDQASISCRSSQSIVHSNGNTYLEWYLQKPGQSPKLLIYKVSNRFSGVPDRFSGSGSGTDFTLKISRVEAEDLGVYYCFQGSHVPFTFGSGTKLEIK
notes: VH of antibody 3D5, as the VH of m7 with the stated change; numbers count on: Kabat numbering of the heavy chain; CH1 of the vector pUQ2, as in m7; VL of antibody 3D5, as the light chain of m7; CL of the vector pUQ2, as the light chain of m7; m9 labelled with two dyes; also called YW TAMRA; source: E. coli SHuffle T7 Express with pGro7, purified (Talon IMAC), labelled, purified (anti-FLAG M2 …)
- Kd ([1]; both partners purified): 1.31 nM
- koff ([1]; both partners purified): 0.000512 s⁻¹
- kon ([1]; both partners purified): 392000 M⁻¹ s⁻¹
- EC50 [2]: 54700 ± 9500 nM
- EC50 [3]: 11100 nM
